# Measured values taken from patent US20140348865A1, “[…] ON AN HIV-1 V1V2 SITE-OF-VULNERABILITY” (The United States of America, as represented by the …, priority 2011, published 2014).
# Key:
# [1] = biological target: Env of HIV-1 strain X2088 (pseudovirus) (HIV-1)
# [2] = biological target: Env of HIV-1 strain 6405 (pseudovirus) (HIV-1)
# [3] = biological target: Env of HIV-1 strain A03349M1 (pseudovirus) (HIV-1)
# [4] = biological target: Env of HIV-1 strain T251-18 (pseudovirus) (HIV-1)
# [5] = biological target: Env of HIV-1 strain BG 1168 (pseudovirus) (HIV-1)
# [6] = biological target: Env of HIV-1 strain RHPA (pseudovirus) (HIV-1)
# [7] = biological target: Env of HIV-1 strain CNE4 (pseudovirus) (HIV-1)
# [8] = biological target: Env of HIV-1 strain 7165.18 (pseudovirus) (HIV-1)
# [9] = biological target: Env of HIV-1 strain QH0515 (pseudovirus) (HIV-1)
# [10] = biological target: Env of HIV-1 strain JRFL (pseudovirus) (HIV-1)
substance,measurement,setting,value
monoclonal antibody PG9,neutralization IC80,NKU3006.ec1 (HIV-1),> 50 µg/mL
same,neutralization IC80,[1],> 50 µg/mL
same,neutralization IC80,SIVmac251.30.SG3 (SIV),> 50 µg/mL
same,neutralization IC80,3016.v5.c45 (HIV-1),> 50 µg/mL
same,neutralization IC80,UG024.2 (HIV-1),> 50 µg/mL
same,neutralization IC80,SVA.MLV,> 50 µg/mL
same,neutralization IC80,231965.c1 (HIV-1),> 50 µg/mL
same,neutralization IC80,3337_V2_C6 (HIV-1),> 50 µg/mL
same,neutralization IC80,57128.vrc15 (HIV-1),0.665 µg/mL
same,neutralization IC80,[2],> 50 µg/mL
same,neutralization IC80,UG021.16 (HIV-1),> 50 µg/mL
same,neutralization IC80,3817.v2.c59 (HIV-1),0.028 µg/mL
same,neutralization IC80,3326_V4_C3 (HIV-1),0.111 µg/mL
same,neutralization IC80,ZM53.12 (HIV-1),0.17 µg/mL
same,neutralization IC80,ZM233.6 (HIV-1),< 0.023 µg/mL
same,neutralization IC80,ZM55.28a (HIV-1),11.5 µg/mL
same,neutralization IC80,[3],> 50 µg/mL
same,neutralization IC80,ZM249.1 (HIV-1),0.408 µg/mL
same,neutralization IC80,CNE10 (HIV-1),1.61 µg/mL
same,neutralization IC80,[4],> 50 µg/mL
same,neutralization IC80,[5],> 50 µg/mL
same,neutralization IC80,HO86.8 (HIV-1),0.125 µg/mL
same,neutralization IC80,T33-7 (HIV-1),0.087 µg/mL
same,neutralization IC80,SS1196.01 (HIV-1),3.08 µg/mL
same,neutralization IC80,T266-60 (HIV-1),> 50 µg/mL
same,neutralization IC80,QH0692.42 (HIV-1),> 50 µg/mL
same,neutralization IC80,CNE12 (HIV-1),> 50 µg/mL
same,neutralization IC80,T250-4 (HIV-1),0.001 µg/mL
same,neutralization IC80,BR07.DG (HIV-1),> 50 µg/mL
same,neutralization IC80,PVO.04 (HIV-1),37.1 µg/mL
same,neutralization IC80,SC422.8 (HIV-1),38.6 µg/mL
same,neutralization IC80,TRJO.58 (HIV-1),3.22 µg/mL
same,neutralization IC80,BX08_16 (HIV-1),0.273 µg/mL
same,neutralization IC80,BL01.DG (HIV-1),> 50 µg/mL
same,neutralization IC80,T253-11 (HIV-1),1.72 µg/mL
same,neutralization IC80,CH070.1 (HIV-1),0.024 µg/mL
same,neutralization IC80,[6],> 50 µg/mL
same,neutralization IC80,[7],> 50 µg/mL
same,neutralization IC80,REJO.67 (HIV-1),0.08 µg/mL
same,neutralization IC80,ADA.DG (HIV-1),> 50 µg/mL
same,neutralization IC80,HT593.1 (HIV-1),5.41 µg/mL
same,neutralization IC80,T255-34 (HIV-1),0.114 µg/mL
same,neutralization IC80,CNE57 (HIV-1),> 50 µg/mL
same,neutralization IC80,[8],> 50 µg/mL
same,neutralization IC80,T278-50 (HIV-1),6.06 µg/mL
same,neutralization IC80,WITO.33 (HIV-1),0.03 µg/mL
same,neutralization IC80,CH038.12 (HIV-1),> 50 µg/mL
same,neutralization IC80,JRCSF.JB (HIV-1),0.009 µg/mL
same,neutralization IC80,HXB2.DG (HIV-1),10.2 µg/mL
same,neutralization IC80,AC10.29 (HIV-1),0.306 µg/mL
same,neutralization IC80,89.6.DG (HIV-1),> 50 µg/mL
same,neutralization IC80,SF162.LS (HIV-1),> 50 µg/mL
same,neutralization IC80,[9],> 50 µg/mL
same,neutralization IC80,YU2.DG (HIV-1),> 50 µg/mL
same,neutralization IC80,BaL.26 (HIV-1),0.365 µg/mL
same,neutralization IC80,T280-5 (HIV-1),1.94 µg/mL
same,neutralization IC80,TRO.11 (HIV-1),> 50 µg/mL
same,neutralization IC80,Bal.01 (HIV-1),1.52 µg/mL
same,neutralization IC80,[10],> 50 µg/mL
same,neutralization IC80,DJ263.8 (HIV-1),0.733 µg/mL
same,neutralization IC80,T257-31 (HIV-1),0.075 µg/mL
same,neutralization IC80,THRO.18 (HIV-1),> 50 µg/mL
same,neutralization IC80,MN.3 (HIV-1),> 50 µg/mL
monoclonal antibody PG16,neutralization IC80,NKU3006.ec1 (HIV-1),> 50 µg/mL
same,neutralization IC80,[1],> 50 µg/mL
same,neutralization IC80,SIVmac251.30.SG3 (SIV),> 50 µg/mL
same,neutralization IC80,3016.v5.c45 (HIV-1),> 50 µg/mL
same,neutralization IC80,UG024.2 (HIV-1),> 50 µg/mL
same,neutralization IC80,SVA.MLV,> 50 µg/mL
same,neutralization IC80,231965.c1 (HIV-1),> 50 µg/mL
same,neutralization IC80,3337_V2_C6 (HIV-1),> 50 µg/mL
same,neutralization IC80,57128.vrc15 (HIV-1),> 50 µg/mL
same,neutralization IC80,[2],> 50 µg/mL
same,neutralization IC80,UG021.16 (HIV-1),> 50 µg/mL
same,neutralization IC80,3817.v2.c59 (HIV-1),0.051 µg/mL
same,neutralization IC80,3326_V4_C3 (HIV-1),0.221 µg/mL
same,neutralization IC80,ZM53.12 (HIV-1),0.103 µg/mL
same,neutralization IC80,ZM233.6 (HIV-1),< 0.023 µg/mL
same,neutralization IC80,ZM55.28a (HIV-1),> 50 µg/mL
same,neutralization IC80,[3],> 50 µg/mL
same,neutralization IC80,ZM249.1 (HIV-1),9.23 µg/mL
same,neutralization IC80,CNE10 (HIV-1),> 50 µg/mL
same,neutralization IC80,[4],> 50 µg/mL
same,neutralization IC80,[5],> 50 µg/mL
same,neutralization IC80,HO86.8 (HIV-1),0.02 µg/mL
same,neutralization IC80,T33-7 (HIV-1),0.279 µg/mL
same,neutralization IC80,SS1196.01 (HIV-1),2.9 µg/mL
same,neutralization IC80,T266-60 (HIV-1),> 50 µg/mL
same,neutralization IC80,QH0692.42 (HIV-1),> 50 µg/mL
same,neutralization IC80,CNE12 (HIV-1),> 50 µg/mL
same,neutralization IC80,T250-4 (HIV-1),0.001 µg/mL
same,neutralization IC80,BR07.DG (HIV-1),> 50 µg/mL
same,neutralization IC80,PVO.04 (HIV-1),> 50 µg/mL
same,neutralization IC80,SC422.8 (HIV-1),> 50 µg/mL
same,neutralization IC80,TRJO.58 (HIV-1),13.9 µg/mL
same,neutralization IC80,BX08_16 (HIV-1),38.8 µg/mL
same,neutralization IC80,BL01.DG (HIV-1),> 50 µg/mL
same,neutralization IC80,T253-11 (HIV-1),> 50 µg/mL
same,neutralization IC80,CH070.1 (HIV-1),0.013 µg/mL
same,neutralization IC80,[6],> 50 µg/mL
same,neutralization IC80,[7],> 50 µg/mL
same,neutralization IC80,REJO.67 (HIV-1),0.4 µg/mL
same,neutralization IC80,ADA.DG (HIV-1),0.458 µg/mL
same,neutralization IC80,HT593.1 (HIV-1),13.7 µg/mL
same,neutralization IC80,T255-34 (HIV-1),0.079 µg/mL
same,neutralization IC80,CNE57 (HIV-1),> 50 µg/mL
same,neutralization IC80,[8],> 50 µg/mL
same,neutralization IC80,T278-50 (HIV-1),> 50 µg/mL
same,neutralization IC80,WITO.33 (HIV-1),< 0.023 µg/mL
same,neutralization IC80,CH038.12 (HIV-1),> 50 µg/mL
same,neutralization IC80,JRCSF.JB (HIV-1),0.015 µg/mL
same,neutralization IC80,HXB2.DG (HIV-1),> 50 µg/mL
same,neutralization IC80,AC10.29 (HIV-1),0.088 µg/mL
same,neutralization IC80,89.6.DG (HIV-1),> 50 µg/mL
same,neutralization IC80,SF162.LS (HIV-1),> 50 µg/mL
same,neutralization IC80,[9],> 50 µg/mL
same,neutralization IC80,YU2.DG (HIV-1),> 50 µg/mL
same,neutralization IC80,BaL.26 (HIV-1),> 50 µg/mL
same,neutralization IC80,T280-5 (HIV-1),4.53 µg/mL
same,neutralization IC80,TRO.11 (HIV-1),> 50 µg/mL
same,neutralization IC80,Bal.01 (HIV-1),> 50 µg/mL
same,neutralization IC80,[10],> 50 µg/mL
same,neutralization IC80,DJ263.8 (HIV-1),1.11 µg/mL
same,neutralization IC80,T257-31 (HIV-1),0.021 µg/mL
same,neutralization IC80,THRO.18 (HIV-1),> 50 µg/mL
same,neutralization IC80,MN.3 (HIV-1),> 50 µg/mL
